Experimental data from patent EP2216341A1, “Transferrin variants and conjugates” (Novozymes Biopharma UK Limited, priority 2009, dated 2010).

Legend:
[1] = tested on: K562 erythroleukemic cells; assay: 55Fe uptake from labeled diferric transferrin in erythroleukemic K562 cells; format: cell-based, human; settings: 25 minutes at 37°C
Experimental: Human plasma-derived apo-transferrin (Calbiochem 616419, tissue culture grade, pyrogen-free) is supplied lyophilised from 10mM phosphate buffer, pH7.4. The transferrin mutein is expressed, purified and quantified as described above.
For iron-55 uptake from labeled diferric transferrin, K562 erythroleukemic cells, cultured in RPMI cell culture medium under standard conditions (bicarbonate-buffered, 5% (v/v) CO2, antibiotics, 10% (v/v) fetal calf serum) are washed with serum-free medium containing HEPES-buffer and 1 mg/ml of bovine serum albumin and used at a concentration of 10 million cells/ml in this medium. The samples tested are prepared as equimolar concentrations of apo-transferrin mutein. Apo-transferrin mutein is loaded with iron according to a standard procedure (Bates and Schlabach, J Biol Chem, 248, 3228-3232, 1973) using ferric nitrilotriacetate as iron source. Typically 50µl of 1 M NaClO4 is added to 450µl of the transferrin mutein stock-solution (pH is alkaline to neutral). The ^55Fe -NTA-loading-buffer is prepared by mixing 8.5µl 50mM NTA (pH 8.25), 18.9µl 0.1M Tris, 98.8µl Millipore-purified water and 7.5µl ^55FeCl3 in 0.5 N HCl (NEN products). 500µl of transferrin mutein is carefully mixed (dropwise) with the ^55Fe -NTA-loading-buffer and then 310µl of 5mM Hepes. NaOH/0.1M NaClO4 is added. The mixture is incubated at 4°C for 60 min following which it is deslated on a PD-10 column (containing Sephadex G-25) and dialysed. The PD-10 column is equilibrated with 5ml of equilibration buffer (5mM Hepes/NaOH, 0.1M NaClO4, 0.1 g BSA (Amresco)) then washed three times with 5ml of wash buffer (5mM Hepes/NaOH, 0.1M NaClO4). […]
Increasing concentrations of human plasma transferrin or the transferrin mutein sample (0, 25, 100, 200, 400, 800, 1600 nM), labeled with ^55Fe, are mixed with 25 µl of medium. […] The lysates are neutralized with 1 M HCl after overnight lysis, mixed with Readysolv Scintillation cocktail and counted in the Packard Liquid Scintillation Counter. […]

[2] = molecular target: T1, transferrin receptor 1 (TfR1) (Homo sapiens, UniProt P02786); assay: Transferrin receptor 1 binding by Surface Plasmon Resonance (SPR, Biacore); settings: fluorescein conjugated sample
T1 construct: purchased AbD Serotec 9110-300
T1 sequence (P02786 whole entry): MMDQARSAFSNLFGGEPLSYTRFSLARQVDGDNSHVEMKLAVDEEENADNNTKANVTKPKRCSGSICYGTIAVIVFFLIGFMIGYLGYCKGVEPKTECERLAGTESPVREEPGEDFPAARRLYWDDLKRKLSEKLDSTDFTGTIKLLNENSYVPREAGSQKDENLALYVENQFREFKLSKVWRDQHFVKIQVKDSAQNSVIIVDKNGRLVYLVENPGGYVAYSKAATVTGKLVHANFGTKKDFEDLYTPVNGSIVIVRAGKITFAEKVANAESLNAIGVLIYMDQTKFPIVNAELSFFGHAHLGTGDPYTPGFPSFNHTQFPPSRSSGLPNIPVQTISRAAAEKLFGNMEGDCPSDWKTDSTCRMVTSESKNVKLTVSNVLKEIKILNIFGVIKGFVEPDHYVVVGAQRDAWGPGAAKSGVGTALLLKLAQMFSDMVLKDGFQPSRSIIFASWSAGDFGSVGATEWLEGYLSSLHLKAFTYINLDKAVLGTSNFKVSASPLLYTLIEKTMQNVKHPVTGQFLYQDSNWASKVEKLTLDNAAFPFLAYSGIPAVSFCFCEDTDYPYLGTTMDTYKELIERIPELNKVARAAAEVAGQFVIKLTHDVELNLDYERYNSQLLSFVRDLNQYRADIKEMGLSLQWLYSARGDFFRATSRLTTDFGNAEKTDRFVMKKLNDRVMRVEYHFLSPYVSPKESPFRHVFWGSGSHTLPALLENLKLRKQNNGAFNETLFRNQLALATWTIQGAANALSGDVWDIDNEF
Text: The receptor binding capability of the recombinant transferrin variants can be determined by Surface Plasmon Resonance (SPR) analysis. The binding activity of a transferrin sample to a transferrin receptor can be measured using surface plasmon resonance (SPR) a non-invasive optical technique in which the SPR response is a measure of change in mass concentration at the detector surface as molecules bind or dissociate. A sample is sent onto the surface of the sensor chip via a micro flow system at a constant flow rate. In this analysis, if the transferrin sample is able to bind to the Transferrin Receptor the mass on the surface sensor chip is increased due to binding between Transferrin Receptor and Transferrin molecules creating a surface plasmon wave, and a shift of the SPR signal proportional to the binding quantity can be detected as a change in the resonance unit (RU). […]
The binding capacity of human serum transferrin to human trabnsferrin receptor 1 may be measured by SPR. […]
The receptor binding capability of the recombinant transferrin variants was assessed by Surface Plasmon Resonance (SPR) analysis. The binding activity of a transferrin sample to transferrin receptor can be measured using surface plasmon resonance (SPR) a non-invasive optical technique in which the SPR response is a measure of change in mass concentration at the detector surface as molecules bind or dissociate. […]

- ability to bind to transferrin receptor 1 (measured by SPR) [2]: able to bind to transferrin receptor 1
B1: Fluorescein conjugated thio-transferrin (S28C, S415A, T613A): Thiotransferrin (S28C, S415A, T613A) conjugated with fluorescein (conjugate, UniProt P02787 20-698, looked up, variant S28C S415A T613A)
Serotransferrin: VPDKTVRWCAVSEHEATKCQSFRDHMKCVIPSDGPSVACVKKASYLDCIRAIAANEADAVTLDAGLVYDAYLAPNNLKPVVAEFYGSKEDPQTFYYAVAVVKKDSGFQMNQLRGKKSCHTGLGRSAGWNIPIGLLYCDLPEPRKPLEKAVANFFSGSCAPCADGTDFPQLCQLCPGCGCSTLNQYFGYSGAFKCLKDGAGDVAFVKHSTIFENLANKADRDQYELLCLDNTRKPVDEYKDCHLAQVPSHTVVARSMGGKEDLIWELLNQAQEHFGKDKSKEFQLFSSPHGKDLLFKDSAHGFLKVPPRMDAKMYLGYEYVTAIRNLREGTCPEAPTDECKPVKWCALSHHERLKCDEWSVNSVGKIECVSAETTEDCIAKIMNGEADAMSLDGGFVYIAGKCGLVPVLAENYNKADNCEDTPEAGYFAIAVVKKSASDLTWDNLKGKKSCHTAVGRTAGWNIPMGLLYNKINHCRFDEFFSEGCAPGSKKDSSLCKLCMGSGLNLCEPNNKEGYYGYTGAFRCLVEKGDVAFVKHQTVPQNTGGKNPDPWAKNLNEKDYELLCLDGTRKPVEEYANCHLARAPNHAVVTRKDKEACVHKILRQQQHLFGSNVADCSGNFCLFRSETKDLLFRDDTVCLAKLHDRNTYEKYLGEEYVKAVGNLRKCSTSSLLEACTFRRP
modifications: fluorescein conjugate
- Specific iron ptake Bmax ([1]; 55Fe-labeled sample 0-1600 nM, specific uptake (unspecific binding with hundredfold excess unlabeled diferric transferrin accounted for)): 2430±125 fmol^55Fe/10^6 cells 25min
- Total Iron Uptake Bmax ([1]; 55Fe-labeled sample 0-1600 nM, total uptake): 3294±170 fmol^55Fe/10^6 cells x 25min
- Kd ([1]; specific uptake, read-out: Specific iron ptake Kd x): 154 ± 32 nM
